In the RNAGym collection of RNA variant scans (doi:10.1073/pnas.2313332121):

B1: TPR t1 (parent)
chain: GACCAAUCUGCCCUCAGAGCUCGAGAACAUCUUCGGAUGCAGAGGAGGCAGGCUUCGGUGGCGCGAUAGCGCCAACGUCCUCAACCUCCAAUGCAUCCCACCACAUGAUGAUGCCUGAAGAGCCUUGGUUUUUUG

Variants of: B1
Assay: polymerase ribozyme fitness, log enrichment relative to wild type (log ratio); higher = more active; in vitro selection for triplet polymerase activity
How it was run: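 Each subunit of a heterodimeric triplet polymerase ribozyme was represented by a PCR-built, transcribed mutant library that underwent triplicate single-round in vitro selection with frozen incubation at −7 °C. Extended constructs were recovered by gel excision, streptavidin-bead capture and RT-PCR, and Illumina sequencing of input and output libraries kept genotypes with ≥10 input reads and ≥1 read per output. Fitness is the logarithm of genotype enrichment relative to wild-type enrichment, from inverse-variance-weighted replicate averages, with a logarithm base of 2.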

Row | Variant | polymerase ribozyme fitness (log ratio)
1 | GACCAAUCUGCUCUCAGCGCUCGAGAACAUCUUCGGAUGCAGAGGAGGCAGGCUUCGGUGGCGCGAUAGCGCCAACGUCCUCAACCUCCAAUGCAUCCCACCACAUGAUGAUGCCUGAAGAGCCUUGGUUUUUUG [C12U A18C] | -1.45
2 | GACCAAUCUGCUCUCAGCGCUCGAGAACAUCUUUGGAUGCAGAGGAGGCAGGCUUCGGUGGCGCGAUAGCGCCAACGUCCUCAACCUCCAAUGCAUCCCACCACAUGAUGAUGCCUGAACAGCCUUGGUUUUUUG [C12U A18C C34U G120C] | -4.87
3 | GACCAAUCUGCUCUCAGAGCUCGAGAACGUCUUCGGAUGCAGAGGAGGCAGGCUUCGGUGGCGCGAUAGCUCCAACGUCCUCAACCUCCAAUGCAUCCCACCACAUGAUGAUGCCUGAAGAGCCUUGAUUUUUUG [C12U A29G G71U G128A] | -3.03
4 | GACCAAUCUGCUCUCAGAGCUCGAGAACAUCUUCGGAUGCAGAGGCUGCAGGCUUCGGUGGCGCGAUAGCGCCAACGUCCUCAACAUCCAAUGCAUCCCACCACAUGGUGAUGCCUGAAGAGCCUUGGUUUUUUG [C12U A46C G47U C86A A108G] | -1.87
5 | GACCAAUCUGCUCUCAGGGCUCGAGAACAUCUUCGGAUGCAGAGGAGGCAGGCUUCGGUGGCCCGAUAGCGCCAACGUCCUCAACCUGCCAUGCAUCCCACCACAUGAUGAUGACUGAAGAACCUUGGUUUUUUG [C12U A18G G63C C88G A90C C114A G122A] | -5.09
6 | GACCAAUCUGCUCUCAGAGCUCGAGAGCAUCUUCGGAUGUAGAGGAGGCAGGCUUUGGUGGCGCGAUAGCGCCAACGUACACAACCUCCAAUGCAUCCCACCACAUGAUGAUGCCUGAAGAGCUUUGGUUUUUUG [C12U A27G C40U C56U C79A U81A C124U] | -2.87
7 | GACCAAUCUGCUCUCAGAGCUCGAGAACAUCUUCGGAUGCAGAGGAGGCGGGCUUCGGUGGCGCGAUAGCUCCAACGUCCUCAACCUCCAAUGCAUCCCACCACAUGAUGAUGCCUGAAGAGCCUUGGUCUUUUG [C12U A50G G71U U130C] | 0.0947
8 | GACCAAUCUGCUCUCAGAGCUCGAGACCAUCUUCGGAUGCAGAGGAGGCAGGCUUCGGUGGCGCGAUAGCGCCAACGUCCUCAACCUCCAAUGCAUCCCACCACAUGAUGAUGCCUGAAGAGCCUUGGUUUUUUG [C12U A27C] | -2.1
9 | GACCAAUCUGCUCUCUGAGCUCGAGAACAUCUUCGGAUGCAGAGGAGGCAGGCUUCGGUGGCCCGAUAGCGCCAACGUCCUCAACCUCCAAUGCAUCCCACCACCUGAUGAUGCCUGAAGAGCGUUGGUUUUUUG [C12U A16U G63C A105C C124G] | -2.25
10 | GACCAAUCUGCUCUCAGAGCUCGAGUACAUCUUCGGAUGCAGAGGAGGCAGGCUUCGGUGGCGCGAUAGCGCCAACGUCCUCAACCUCCAAUUCAUCCCACCACAUGAUGAUGCCUGAAGAGCCUUGGUUUUUUG [C12U A26U G93U] | -3.6
11 | GACCAAUCUGCUCUCAGAGCUCGAGAACAUCUUCGGAUGCAGAGGAGGCUGGCUUCGGUGGCGCGAUAGCGCUAACGUCCUCAACCUCCAAUGCAUCCCACCACAUGAUGAUGCCUGAAGAGCCAUGGUUUUUUG [C12U A50U C73U U125A] | -0.873
12 | GACCAAUCUGCUCUCAGAGCUCGAGAACAUCUUCGGAUGCAGAGGAGGCGGGCUUCGGUGGCGCGAUAGCGCCUACGCCCUCAACCUCCAAUACAUCCCACCACAUGAUGAUGCCUGAAGAGCCUUGGUUUUUUG [C12U A50G A74U U78C G93A] | -1.93
13 | GACCAAUCUGCUCUCAGAGCUCGAGACCAUCUUCGGAUGCAGAGGAGGAAGGCUUCGGUGGCGCGAUAGCGCCAACGUCCUCAACCUCCAAUGCAUCCCACCACAUGAUGAUGCCUGAAGAGCCUUGGUUUUUUG [C12U A27C C49A] | -2.06
14 | GACCAAUCUGCUCUCAGAGCUCGAGAACGUCUUCGGAUGCAGAGGAGGCAGGCUUCGGUGGCGCGAUAGCGCGAACGUCCUCAACCUCCAACGAAUCCCACCACAUGAUGAUGCCUGAAGAGCCUUGGUUUUUUG [C12U A29G C73G U92C C94A] | -5.22
15 | GACCAAUCUGCUCUCAGAGCUCGAGAACAUCUUCGGAUGCAGUGGAGGCAGGCUUCGGUGGCGCGAUAGCGCCAACGUCCUCAACCUCCAAUGCAUCCCACCACAUGAUGAUGCCUGAAGAGCCUUGGUUUUUUG [C12U A43U] | -1.51
16 | GACCAAUCUGCUCUCAGAGCUCGAGAGCAUCUUCGGAUGCAAAGGAGGCAGGCUUCGGUGGCGCGAUAGCGCCAACGUCCUCAACCUCCGAUUCGUCCCACCACAUGAUGAUGCCUGAAGAGCCUUGGUUUUUUG [C12U A27G G42A A90G G93U A95G] | -2.39
17 | GACCAAUCUGCUCUCAGAGCUCGAGAACAUCUUCGGUUGCAGAGGAGGCAGGCUUCGGUGGCACGAUAGCGCCAACGUCCUCAAUCUCCAAUCCAUCCCACCACAUGAUGAUGCCUGAAAAGCCUUGGUUUUUUG [C12U A37U G63A C85U G93C G120A] | -0.961
18 | GACCAAUCUGCUCUCAGUGCUCGAGAACAUCUUCGGAUGCAGAGGACGCAGGCUUCGGUGGCGCGAUAGCGCCAACGUCCUCAACCUCCAAUGCAUCCCACCACAUGAUGAUGCCUGAAGAGCCUUGGUAUUUUG [C12U A18U G47C U130A] | -4.44
19 | GACCAAUCUGCUCUCAGAGCUCGAGAACAUCUUCGGAUGCAGAGGCGGCAGUCUUCGGUGGCGCGAUAGCGCCAACGUCCUCAACCUCCAAUGCAUCCCACCACAUGAUGAUGCCUGAAGAGCCUUGGUUUUUUG [C12U A46C G52U] | -0.969
20 | GACCAAUCUGCUCUCAGAGCUCGAGAGCAUCUUCGGAUGCAGAGGAGGCAGGCUUCGGUGGCGCGAUAGCGCCAACGUCCUCAACCUACAAUGCAUCCCACCACAUGAUGAUGCCUGAAGAGGCUAGGUUUUUUG [C12U A27G C88A C123G U126A] | -1.75
21 | GACCAAUCUGCUCUCAGAGCUCGAGAACAUCUUCGGAUGCAGAGGAGGCCGGCUUCGGUGGCGUGGUAGCGCCAACGUCCCCAACCUCCAAUGCAUCCCACCACAUGAUGAUGCCUGAAGAGCCUUGGUUUUUUG [C12U A50C C64U A66G U81C] | -4.8
